Several values for one entry are separate records, joined by “and”; a condition that tells them apart may be missing. Identical values can stand only once.

One may read the Tm as the temperature at which the thermal transition is half complete.

The conditions of the data set: whole UniProt chain shown.
Where [1] appears, read: Pseudomonas aeruginosa (strain ATCC 15692 / DSM 22644 / CIP 104116 / JCM 14847 / LMG 12228 / 1C / PRS 101 / PAO1), pH 7, 20 °C, GdnHCl, CD, phosphate 5 mM, reversible: yes.
Setting [2] is: Pseudomonas aeruginosa (strain ATCC 15692 / DSM 22644 / CIP 104116 / JCM 14847 / LMG 12228 / 1C / PRS 101 / PAO1), pH 8, Thermal, DSC, Tris-HCl 10 mM, NaCl 200 mM, reversible: yes.
[3] abbreviates: Rattus norvegicus, pH 7, 25 °C, Urea, CD, Sodium phosphate 25 mM, NaCl 75 mM, reversible: yes.
Where [4] appears, read: Rattus norvegicus, pH 7, 25 °C, Urea, Fluorescence, Sodium phosphate 25 mM, NaCl 75 mM, reversible: yes.
The mark [5] stands for this setting: Rattus norvegicus, pH 7, 27 °C, Urea, CD, Phosphate 10 mM.
[6] abbreviates: Rattus norvegicus, pH 7, 27 °C, Urea, Magnetic Relaxation Dispersion, Phosphate 10 mM.
[7] abbreviates: Rattus norvegicus, pH 7.2, 20 °C, GdnHCl, Fluorescence, Potassium phosphate 20 mM, reversible: yes.
The mark [8] stands for this setting: Rattus norvegicus, pH 7.4, 20 °C, GdnHCl, CD, Potassium phosphate 20 mM, reversible: yes.
Setting [9] is: Rattus norvegicus, pH 7.4, 20 °C, GdnHCl, Fluorescence, Potassium phosphate 20 mM, reversible: yes.
Where [10] appears, read: Rattus norvegicus, pH 9.6, 20 °C, GdnHCl, Fluorescence, Sodium pyrophosphate 20 mM, reversible: yes.

B1: Azurin wild type, P00282 (protein)
chain: MLRKLAAVSLLSLLSAPLLAAECSVDIQGNDQMQFNTNAITVDKSCKQFTVNLSHPGNLPKNVMGHNWVLSTAADMQGVVTDGMASGLDKDYLKPDDSRVIAHTKLIGSGEKDSVTFDVSKLKEGEQYMFFCTFPGHSALMKGTLTLK
In the case of B1, under setting [1], the denaturant m value was found to be 4.18 kcal/mol/M, the “denaturant midpoint (higher = more stable)” value (shortened to “denaturant midpoint”) is 1.7 M and the unfolding free energy is 6.96 kcal/mol. Besides, the unfolding free energy (Pseudomonas aeruginosa (strain ATCC 15692 / DSM 22644 / CIP 104116 / JCM 14847 / LMG 12228 / 1C / PRS 101 / PAO1), pH 7.5, 40 °C, GdnHCl, Fluorescence, Tris Cl 2 mM, reversible: Yes) was 8.6 kcal/mol. For the same protein, under setting [2], the Tm amounted to 62 °C and the “unfolding enthalpy (calorimetric)” value was found to be 165 kcal/mol.

B2: Parvalbumin alpha wild type, P02625 (protein)
chain: MSMTDLLSAEDIKKAIGAFTAADSFDHKKFFQMVGLKKKSADDVKKVFHILDKDKSGFIEEDELGSILKGFSSDARDLSAKETKTLMAAGDKDGDGKIGVEEFSTLVAES
Regarding B2, the unfolding free energy (Rattus norvegicus, pH 7.74, 30 °C, Thermal, CD, piperazine 10 mM, KCl 200 mM) was found to be 0.7 kcal/mol. Moreover, under “Rattus norvegicus, pH 7.74, Thermal, CD, piperazine 10 mM, KCl 200 mM”, the Tm turned out to be 35 °C.

B3: wild type, P95467 (protein)
chain: MKKALIASTALLLTAGVAAADVKISGYGRTGVIYYENDSDVNESRVQSRLRMNIDASSSTDSGVDFGARFRLQWDQGEEGEAQTNAGKLWVSAQGFTVEVGNVDTAFASNGLIYETGLGSYDRSVGFSAVTGAFFAYDSNGYGIDEVDRVGIRALYTLGDLTLQASYVDPDQSGTVIGVEEEFGFSVDYTWNERLELSAAAAFNGAGIDGNDIYFLGARYAVMDNARIGLNFVDAGDEEDGYDGKTIALYGDYTLADGRTNLEAYIANNDRDSNETDNAFGIGVNYDLGGARLGASLQRDYAENVTADFGVRFEF
B3: the Tm (Paracoccus denitrificans, pH 1.5, Thermal, CD, Unknown, reversible: No) is 78.5 °C; the Tm (Paracoccus denitrificans, pH 4, Thermal, CD, Unknown, reversible: No) came out at 82.6 °C; the Tm (Paracoccus denitrificans, pH 8, Thermal, Absorbance, Tris-HCl 50 mM, NaCl 100 mM, reversible: no) was 86.2 °C; the Tm (Paracoccus denitrificans, pH 8, Thermal, CD, Unknown, reversible: No) turned out to be 86.2 °C; the Tm (Paracoccus denitrificans, pH 10, Thermal, CD, Unknown, reversible: No) was found to be 86.2 °C.

B4: Fatty acid-binding protein, brain wild type, P55051 (protein)
chain: MVDAFCATWKLTDSQNFDEYMKALGVGFATRQVGNVTKPTVIISQEGGKVVIRTQCTFKNTEISFQLGEEFEETSIDDRNCKSVIRLDGDKLIHVQKWDGKETNCVREIKDGKMVVTLTFGDVVAVRCYEKA
For B4, the denaturant m value is 1.04 kcal/mol/M under setting [3]; 1.13 kcal/mol/M under setting [4]; 1 kcal/mol/M under setting [5]; 0.88 kcal/mol/M under setting [6]; 5.33 kcal/mol/M under setting [8]; 3.82 kcal/mol/M under setting [9]. The “denaturant midpoint” value under setting [3] is 4.1 M; the “denaturant midpoint” value under setting [4] turned out to be 4.24 M; the “denaturant midpoint” value under setting [5] was 5.1 M; the “denaturant midpoint” value under setting [6] came out at 6.5 M; the “denaturant midpoint” value under setting [7] was 1.36 M; the “denaturant midpoint” value under setting [8] worked out at 1.32 M. In addition, the “denaturant midpoint” value runs as follows: under setting [9], 1.36 M; under setting [10], 1.41 M. Further, the unfolding free energy is, setting by setting: under setting [3], 4.28 kcal/mol; under setting [4], 4.79 kcal/mol; under setting [7], 5.22 kcal/mol; under setting [8], 7.06 kcal/mol; under setting [9], 5.22 kcal/mol; (Rattus norvegicus, pH 8, 25 °C, Urea, CD, NaH2PO4 25 mM/, NaCl 75 mM, reversible: Yes) 5.86 kcal/mol. The unfolding free energy amounted to 5.28 kcal/mol (Rattus norvegicus, pH 8, 25 °C, Urea, Fluorescence, NaH2PO4 25 mM/, NaCl 75 mM, reversible: Yes) and 5.59 kcal/mol under setting [10].

B5: Harpin HrpZ wild type, P35674 (protein)
chain: MQSLSLNSSSLQTPAMALVLVRPEAETTGSTSSKALQEVVVKLAEELMRNGQLDDSSPLGKLLAKSMAADGKAGGGIEDVIAALDKLIHEKLGDNFGASADSASGTGQQDLMTQVLNGLAKSMLDDLLTKQDGGTSFSEDDMPMLNKIAQFMDDNPAQFPKPDSGSWVNELKEDNFLDGDETAAFRSALDIIGQQLGNQQSDAGSLAGTGGGLGTPSSFSNNSSVMGDPLIDANTGPGDSGNTRGEAGQLIGELIDRGLQSVLAGGGLGTPVNTPQTGTSANGGQSAQDLDQLLGGLLLKGLEATLKDAGQTGTDVQSSAAQIATLLVSTLLQGTRNQAAA
In the case of B5, the “unfolding enthalpy (calorimetric)” value (Pseudomonas syringae pv. syringae, pH 7.5, Thermal, CD, Sodium phosphate 5mM) is 33.8 kcal/mol and 58.3 kcal/mol.

The values are drawn from FireProtDB.
